Measured values taken from PMC4105704 (Cell, 2014).
Each block holds one molecule with its values, some of them ahead of it.

Assays:
[1] = target: Hermes79-612 C519S (Musca domestica); experiment: crystal structure
[2] = target: HermesΔ497-516 (Musca domestica)
[3] = target: full-length Hermes expressed in budding yeast (Musca domestica); experiment: SEC
[4] = target: full-length Hermes expressed in Sf9 cells (Musca domestica); experiment: SEC
SEC = target: the molecule itself; experiment: SEC

stoichiometry N [1]: 8
Molecule: Hermes79-612 C519S (domain or fragment)

stoichiometry N [2]: 2
Molecule: HermesΔ497-516 (enzyme)

stoichiometry N [3]: 8
Molecule: full-length Hermes expressed in budding yeast (enzyme)

stoichiometry N [4]: 8
Molecule: full-length Hermes expressed in Sf9 cells (enzyme)

B1: full-length Hermes transposase (E. coli-expressed) (enzyme, Musca domestica, UniProt Q25438 1-612, looked up)
chain: MQKMDNLEVKAKINQGLYKITPRHKGTSFIWNVLADIQKEDDTLVEGWVFCRKCEKVLKYTTRQTSNLCRHKCCASLKQSRELKTVSADCKKEAIEKCAQWVVRDCRPFSAVSGSGFIDMIKFFIKVKAEYGEHVNVEELLPSPITLSRKVTSDAKEKKALISREIKSAVEKDGASATIDLWTDNYIKRNFLGVTLHYHENNELRDLILGLKSLDFERSTAENIYKKLKAIFSQFNVEDLSSIKFVTDRGANVVKSLANNIRINCSSHLLSNVLENSFEETPELNMPILACKNIVKYFKKANLQHRLRSSLKSECPTRWNSTYTMLRSILDNWESVIQILSEAGETQRIVHINKSIIQTMVNILDGFERIFKELQTCSSPSLCFVVPSILKVKEICSPDVGDVADIAKLKVNIIKNVRIIWEENLSIWHYTAFFFYPPALHMQQEKVAQIKEFCLSKMEDLELINRMSSFNELSATQLNQSDSNSHNSIDLTSHSKDISTTSFFFPQLTQNNSREPPVCPSDEFEFYRKEIVILSEDFKVMEWWNLNSKKYPKLSKLALSLLSIPASSAASERTFSLAGNIITEKRNRIGQQTVDSLLFLNSFYKNFCKLDI
stoichiometry N (SEC): 8
